The values below come from the supplement of paper PMC12636428.

For this series, the system named is Saccharomyces cerevisiae. The series can be described thus: transcriptional activation domain activity (GFP:mCherry ratio, weighted mean of sorted bins, harmonized to initial dataset scale) (arbitrary fluorescence ratio units); higher = stronger transcriptional activation. The note with it: beta-estradiol 1 µM; induction time 4 h. In outline: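 Barcoded tiles were sequenced after cells were sorted into 8 bins by GFP:mCherry ratio. Before sorting, cultures had been diluted 1:5 into SC with 1 uM beta-estradiol and held for 4 hours at 30 °C. The tiles were fused to an estradiol-inducible synthetic transcription factor and integrated at URA3 in yeast diploids carrying a GFP reporter. Activation activity is the read-weighted mean of bin median fluorescence, averaged over barcodes and linearly mapped onto the initial dataset scale, and tiles under 50 reads were left out.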
For the sequence “MIRFPCLLLYIFAMVYLGVLFFSFFDSCFFFFLHLLGAGWVVHFFLDIFFFYI”, the “transcriptional activation domain activity” value is 70600.
As for “MKLMLSLYLLRMIFSLLVFFLLSGNVVATLFGFSMCFLIRFGWCCVLSYVLSF”, the “transcriptional activation domain activity” value turned out to be 68500.
For the sequence “ATVNLVINFTEMTNLMRALLILYRLKERVLSMAKRLELAELRKSKSINVNLTL”, the “transcriptional activation domain activity” value was 60400.
The figure for “MADENNTAAAVGERNVPRQKQKRVFQTRARTGCQRCRARRRKCDEAKPRCARC” is 35200; for “MYRLQCGVIYSLYVMCFMLLQMLLCVCVVSESFFFFLFLALIVWSPVYIILRV” it is 41900; for “IRLVSSEMIRYLKKHDFKDITYYTLYISLMGFSKRYYRQGILMLKCVDIEVIY” it is 74500.
The figure for “YSIQVFMVPQLAICKVDSIGNVIGGQGGCYNLIPVFDWVRRCVVSIFLVFMVA” is 71500.
In the case of “MDFTLTWVKLHVYFFFLPYPCWKINSLVYPFFFLFFLSFPFSFFFSLFSLFLC”, the “transcriptional activation domain activity” value was determined as 69100.
Consider “CLVIRGRSRFQHGPFWLGSFGLLCNIVLLSWTLFSLVFFSFPFVKPIIPGKPF”, for which the “transcriptional activation domain activity” value stood at 76900.
“IRGMCPEKPQIREIVYLLRGLIVNRILLMTLKKRWNVQYGLHSTRDPIAVPFH”: the “transcriptional activation domain activity” value worked out at 53200.
To “MSSAASSTGSPRPKRRRRRPARSCEQCRRRKIRCDMGQPCNGCVRARVSMECS” belongs 38300.
To “LFFSSFLYFSLSLGAPGNYFFDVTFFFIPYPPLCIASYSLGFFFFFSFFFFFS” belongs 70900.
With “LQHLVVPILFLGPLYATYLNQTLPFQAFWDYDEYVLRKYFSFMGLRTYIIGPI”, the “transcriptional activation domain activity” value stood at 52300.
The figure for “KGKGRRRGRGRGRGRGRGREGKGKGREGEGKGKGKEKGKGKGKGKGKGKGKGR” is 28000.
To “MCIICVLYVYYMYICFVCVHCICFYIFVHRFCLSVCMFFFFFFFFVCFINIIL” belongs 69900.
In the case of “YLIIISFFSFSFYLLIHMQYINPKGHPPLKFYQLIIWRWCATMCAYFFLSLAY”, the “transcriptional activation domain activity” value is 62000.
The figure for “MIDILFFVLFHFFDVLFFSLFCLFLCIILFSSLTFLIYYFFFFFLFFPFFGLF” is 36500; for “ANRIAIRLFHFLLECPDEMTRLVAIKKYIKNTYMIPTYLVTVNCILRLAGYWK” it is 55900; for “LLWFYFLFLFCIFCWWLRYASSLVPNICHIHVIHDLADAFMHIRFVLFISILS” it is 72300.
The figure for “FVGNQAGCYNLVPVYDWIKRCIISIFVVFFISFLPLFLQELCERGVIRALYRL” is 72800; for “DDDIAMFDSLATTQPIDIAASNQQNGEIAQLWDFNVDQFNMTPSNSSGSATIS” it is 91100.
The figure for “RIMLQNAILPWFGKHDLRGKVFGCQIIELFHIFGMSFLNWIWSSGLVLATFPP” is 56600.
For “KGKGKGKEGKGKGRREGEGGRGTEGREMGEKEREEEREEEREGKEGRREGGKE”, the “transcriptional activation domain activity” value was found to be 24100.
To “VGEWMGGGVGCLAAWLGHGIRIFGGTEYWLVPEFFFPLFLFFSFPPWSLVLFC” belongs 74100.
In the case of “PAPAAKKEEKPAAATAEAPKEEAAAAVAAEEPKETKEEEKKEEAKEEKKEEAK”, the “transcriptional activation domain activity” value was 15800.
As for “VHFIYHHSFRMRFYYFFLLSFLQAGRSIGFLIHGFWCFLLLIAFFVYPFLRFV”, the “transcriptional activation domain activity” value was determined as 64600.
To “IIQCLVLGKYTKCAPRTIETLLLYLHLKYNQHEDNQMEIWVLLGVIVRLALRM” belongs 44700; to “ATIIFVFTASICGYNFNFDWVFSYKLVEFENTLGWTLFCLWLFDALLCVLFMT”, 52700.
For the sequence “GGLSELKDSLDDSQVQYAYARVEYANDSESTRVKFVLVIWIGESTKVMRKARV”, the “transcriptional activation domain activity” value came to 46700.
For the sequence “EVHLHIRKVYRHYDDLEHLGRRKFNFLTLVIRHLLDIVGIDSPWALFSRKPQQ”, the “transcriptional activation domain activity” value turned out to be 63000.
With “AAEGGDSVAKSSPAKPKQSKQSKKRPRDEDGEGAGEAPASKKQPKAKAKAAKA”, the “transcriptional activation domain activity” value came to 26100.
As to “EQFVLRDCGLLLWIDLRFLCHCARICLSACLDNYVYGVANITGKLVRFWGLGV”, the “transcriptional activation domain activity” value was determined as 63400.
To “GRQSKDGKEGKEGKEGSGERRREEKKEAGRERGGEEGGKEGRGRQRAGASGGE” belongs 25500.
To “ILVYLSSVKLRNYRGNTYSFIHLTPWVPLDLLKYACDFLGLLSGFNLLPLYFQ” belongs 56300; to “MAPETADKPSRRRHIKSRSGCKNCKKRKVKCGEERPSCRNCSRRGSLCDLADE”, 20400; to “MVIRYGKLNLKYHPVHCLNHFQILCLSWAFCALLDPVGLIVSILLWKLLPTIE”, 69300.
For the sequence “DAYLLWGPGFIPTVCHIHDFPLLLPVAIFLVYINLSSCHLDPLISFLFLPLFG”, the “transcriptional activation domain activity” value was found to be 66500.
